± gives the uncertainty stated by the source.
Test: self-splicing fitness, log relative to wild type (ln ratio); higher = more splicing; Tetrahymena group I intron in knt gene, E. coli kanamycin selection, DiMSum; sequences stand for … in CUCUCU…GGAGGGAAAAGUUAUCAGGCAUGCACCUGGUAGCUAGUCUUUAAACCAAUAGAUUGCAUCGGUUUAAAAGGCAAGACCGUCAAAUUGCGGGAAAGGGGUCAACAGCCGUUCAGUACCAAGUCUCAGGGGAAACUUUGAGAUGGCCUUGCAAAGGGUAUGGUAAUAAGCUGACGGACAUGGUCCUAACCACGCAGCCAAGUCCUAAGUCAACAGAUCUUCUGUUGAUAUGGAUGCAGUUCACAGACUAAAUGUCGGUCGGGGAAGAUGUAUUCUUCUCAUAAGAUAUAGUCGGACCUCUCCUUAAUGGGAGCUAGCGGAUGAAGUGAUGCAACACUGGAGCCGCUGGGAACUAAUUUGUAUGCGAAAGUAUAUUGAUUAGUUUUGGAGUACUCGUGGUCG
How it was run: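 Six replicate transformations of E. coli BL21(DE3) with a pET-22b(+) library were grown overnight at 37°C or 30°C. The library randomised all eight P1ex-region intron nucleotides, the intron lying in the knt kanamycin-resistance gene, and plates were LB agar with or without 25 μg/mL kanamycin plus 100 μg/mL carbenicillin, 50 μM IPTG and 0.2% rhamnose. Pooled colonies were amplicon-sequenced on an Illumina HiSeq 2500, and fitness is the DiMSum error-weighted combination of wild-type-normalised replicate fold changes, kanamycin versus none.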

Row | Sequence | self-splicing fitness (ln) (30 °C) | self-splicing fitness (ln) (37 °C)
1 | CGGCAGCAAUAUUACGAUCG | -2.76 ± 0.18 | -1.97 ± 0.19
2 | CGGCAGCAAUAUUACGCCGG | -2.15 ± 0.17 | -2.16 ± 0.23
3 | CGGCAGCAAUAUUACGCUCA | -0.116 ± 0.15 | -0.137 ± 0.16
4 | CGGCAGCAAUAUUACGGACA | -0.835 ± 0.12 | 0.127 ± 0.11
5 | CGGCAGCAAUAUUACGGCGC | -2.64 ± 0.27 | -2.53 ± 0.24
6 | CGGCAGCAAUAUUACGGGCU | -3.81 ± 0.22 | -2.16 ± 0.24
7 | CGGCAGCAAUAUUACGGUCC | -1.34 ± 0.082 | 0.00991 ± 0.09
8 | CGGCAGCAAUAUUACGGUGG | -1.41 ± 0.09 | -0.157 ± 0.082
9 | CGGCAGCAAUAUUACGUAUU | -3.6 ± 0.16 | -3.11 ± 0.18
10 | CGGCAGCAAUAUUACGUCGU | -3.21 ± 0.2 | -2.64 ± 0.21
11 | CGGCAGCAAUAUUACGUCUC | -1.24 ± 0.065 | -0.433 ± 0.086
12 | CGGCAGCAAUAUUACGUGCG | -3 ± 0.16 | -2.54 ± 0.16
13 | CGGCAGCAAUAUUACGUGGG | -3.46 ± 0.14 | -2.24 ± 0.11
14 | CGGCAGCAAUAUUACGUUGU | -2.18 ± 0.11 | -2.68 ± 0.19
15 | CGGGAGCAAUAUUACGAACG | -4.35 ± 0.24 | -3 ± 0.23
16 | CGGGAGCAAUAUUACGAAUA | -2.55 ± 0.36 | -2.52 ± 0.39
17 | CGGGAGCAAUAUUACGACCA | -1.08 ± 0.31 | –
18 | CGGGAGCAAUAUUACGAGAC | -3.18 ± 0.45 | -2.45 ± 0.44
19 | CGGGAGCAAUAUUACGAUAU | -3.65 ± 0.35 | –
20 | CGGGAGCAAUAUUACGAUGU | -2.47 ± 0.39 | -2.53 ± 0.39
21 | CGGGAGCAAUAUUACGCAAA | – | -2.01 ± 0.35
22 | CGGGAGCAAUAUUACGCAAG | -3.14 ± 0.23 | -2.13 ± 0.29
23 | CGGGAGCAAUAUUACGCAGU | – | -1.82 ± 0.29
24 | CGGGAGCAAUAUUACGCAUA | -2.61 ± 0.37 | -1.96 ± 0.35
25 | CGGGAGCAAUAUUACGCGCG | – | -0.901 ± 0.27
26 | CGGGAGCAAUAUUACGCGUU | -1.22 ± 0.23 | –

Row | Sequence | self-splicing fitness (ln) (30 °C) | self-splicing fitness (ln) (37 °C)
27 | CGGGAGCAAUAUUACGCUGG | -4.21 ± 0.42 | -2 ± 0.3
28 | CGGGAGCAAUAUUACGGCAG | -2.71 ± 0.21 | -1.12 ± 0.26
29 | CGGGAGCAAUAUUACGGGCU | -3.85 ± 0.34 | -2.5 ± 0.41
30 | CGGGAGCAAUAUUACGUACG | -2.98 ± 0.11 | -1.53 ± 0.097
31 | CGGGAGCAAUAUUACGUAGA | -3.97 ± 0.47 | -1.96 ± 0.26
32 | CGGGAGCAAUAUUACGUAGU | – | -1.78 ± 0.29
33 | CGGGAGCAAUAUUACGUUGG | -3.83 ± 0.22 | -2.52 ± 0.2
34 | CGGUAGCAAUAUUACGACCA | -0.494 ± 0.17 | -0.426 ± 0.14
35 | CGGUAGCAAUAUUACGACUA | -0.298 ± 0.14 | 0.0316 ± 0.16
36 | CGGUAGCAAUAUUACGAGCG | -0.978 ± 0.19 | -0.291 ± 0.14
37 | CGGUAGCAAUAUUACGAUAG | -0.323 ± 0.11 | 0.279 ± 0.14
38 | CGGUAGCAAUAUUACGAUUA | -2.71 ± 0.31 | 0.554 ± 0.2
39 | CGGUAGCAAUAUUACGCCAA | -2.52 ± 0.21 | -2.6 ± 0.3
40 | CGGUAGCAAUAUUACGCGAG | -3.58 ± 0.31 | -2.36 ± 0.4
41 | CGGUAGCAAUAUUACGCGGA | -2.54 ± 0.12 | -1.26 ± 0.097
42 | CGGUAGCAAUAUUACGCGGC | -3.99 ± 0.24 | -2.79 ± 0.25
43 | CGGUAGCAAUAUUACGCGGG | -2.49 ± 0.18 | -1.88 ± 0.24
44 | CGGUAGCAAUAUUACGCGUG | -2.11 ± 0.15 | -1.82 ± 0.14
45 | CGGUAGCAAUAUUACGCUCC | -2.2 ± 0.38 | –
46 | CGGUAGCAAUAUUACGCUUC | – | -0.894 ± 0.24
47 | CGGUAGCAAUAUUACGGAAC | – | -2.37 ± 0.36
48 | CGGUAGCAAUAUUACGGCCC | -0.507 ± 0.2 | 0.668 ± 0.37
49 | CGGUAGCAAUAUUACGGCGC | -2.04 ± 0.23 | -1.95 ± 0.24
50 | CGGUAGCAAUAUUACGGCGG | 0.494 ± 0.093 | 0.0118 ± 0.096
51 | CGGUAGCAAUAUUACGGGAC | -3.63 ± 0.47 | -4.61 ± 0.46
